# How the values were obtained:
# human Daudi cells = format: cell-based; details: for glucose uptake (2-NBDG fluorescence): glucose-deprived cells, 1 hour treatment (1 µM per figure legends; 10 µg/mL per method), 2-NBDG 500 µM 30 minutes
# Method: Human Daudi cells cultured in 75 cm^2 flask were centrifuged ( 300 g, 3 minutes), resuspended in warmed PBS supplemented with 10 % goat serum and seeded in 96-well microplate ( 100 µL, 2 × 10^6 cells/mL) in order to deprive cells from glucose. Cells were treated with test treatments (10 µg/mL) for 1 hour (37° C.). Cells were then incubated with 500 µM of the fluorescent and non-metabolizable glucose analog 2-NBDG ((2R,3R,4S,5R)-3,4,5,6-tetrahydroxy-2-[(7-nitro-2,1,3-benzoxadiazol-4-yl)amino]hexanal; Thermo Fischer) for 30 minutes at 37° C., and washed 4 times with PBS containing 10 % of goat serum. Images were acquired using a Zeiss microscope (20 X) and the relative fluorescence intensity of 30 cells was determined using Fiji.
# To determine the effect of test compounds on glucose uptake, we developed a cellular model based on the use of human Daudi cells, a cell line known to strongly express CD38.
# Human Daudi cells were plated in culture medium deprived of glucose and exposed to test treatments (peptides of Table 6) for 1 hour and then incubated with the non-metabolizable, fluorescent glucose 2-NBDG. After 30 minutes of incubation, cells were washed and imaged using a microscope. Fluorescence levels were determined using Fiji.
# [1] = target: recombinant His-tagged CD38 (Homo sapiens, UniProt P28907); assay: Pepscan-based ELISA of His-tagged CD38 on CD31 peptide arrays; format: binding; details: for Value (binding intensity of His-tagged CD38), LOOP7 conformational peptide array: mimic type LOOP7 (single loop, mP2 CLIPS); for Value (binding intensity of His-tagged CD38), LOOP7 conformational peptide array / Value (binding intensity of His-tagged CD38), BET conformational peptide array / Value (binding intensity of His-tagged CD38), LOOP15 conformational peptide array: sample with the highest signal; for Value (binding intensity of His-tagged CD38), BET conformational peptide array: mimic type BET (β-turn mimic, mP2 CLIPS); for Value (binding intensity of His-tagged CD38), LIN15 linear peptide array: mimic type LIN15, sample with the highest signal (His-tagged CD38 9 or 20 µg/mL); for Value (binding intensity of His-tagged CD38), LOOP15 conformational peptide array: mimic type LOOP15 (single loop, mP2 CLIPS)
# Excerpt: Different sets of sCD31 peptides were synthesized according to the following designs. Note that actual order of peptides on mini-cards in some was randomized. • Set #1 • Mimic type: linear • Label: LIN15 • Linear peptides of 15 consecutive amino acid residues in length, derived from the target sequence of sCD31 with an offset of […]. • Set #2 • Mimic type: single loop (mP2 CLIPS) • Label: LOOP7 • Constrained peptides of 9 amino acid residues in length. On positions 2-8 are incorporated 7 consecutive amino acid residues derived from the target sequence of sCD31 with an offset of 1.3 residues. Cys residues were inserted on positions 1 and 9 and joined by mP2 CLIPS in order to create a loop mimic. Native Cys residues, if present, were replaced by Ser residues. • Set #3 • Mimic type: single loop, (mP2 CLIPS) • Label: LOOP15 • Constrained peptides of 17 amino acid residues in length. On positions 2-16 are incorporated 15 consecutive amino acid residues derived from the target sequence of sCD31 with an offset of […]. Cys residues were inserted on positions 1 and 17 and joined by mP2 CLIPS in order to create a loop mimic. Native Cys residues, if present, were replaced by Ser residues. • Set #4 • Mimic type: β-turn peptide mimics (mP2 CLIPS) • Label: BET • β-turn peptide mimics of 22 amino acid residues in length. On positions 2-21 are incorporated 20 consecutive amino acid residues derived from the target sequence of sCD31 with an offset of 1.3 residues. Residues on positions 11 and 12 are replaced by a Pro-Gly motif in order to induce the β-turn formation. Cys residues were inserted on positions 1 and 22 and joined by mP2 CLIPS in order to stabilize the mimic. Native Cys residues, if present, were replaced by Ser residues.
# To reconstruct epitopes of sCD31, a library of peptide-based peptide mimics was synthesized using Fmoc-based solid-phase peptide synthesis. An amino functionalized polypropylene support was obtained by grafting with a hydrophilic polymer formulation, followed by reaction with t-butyloxycarbonyl-hexamethylenediamine (BocHMDA) using dicyclohexylcarbodiimide (DCC) with N-hydroxybenzotriazole (HOBt) and subsequent cleavage of the Boc-groups using trifluoroacetic acid (TFA).
# Standard Fmoc-peptide synthesis was used to synthesize peptides on the amino-functionalized solid support by custom modified JANUS liquid handling stations (Perkin Elmer).
# Synthesis of structural mimics was done using CLIPS technology. CLIPS technology allows to structure peptides into single loops, double loops, triple loops, sheet-like folds, helix-like folds, and combinations thereof. CLIPS templates are coupled to cysteine residues. The side-chains of multiple cysteines in the peptides are coupled to one or two CLIPS templates. For example, a 0.5 mM solution of the P2 CLIPS (2,6-bis(bromomethyl)pyridine) is dissolved in ammonium bicarbonate (20 mM, pH 7.8)/acetonitrile (1:3, v/v). This solution is added onto the peptide arrays. The CLIPS template binds to side-chains of two cysteines as present in the solid-phase bound peptides of the peptide-arrays (455 wells plate with 3-µL wells). The peptide arrays are gently shaken in the solution for 30 to 60 minutes while completely covered in solution.
# Finally, the peptide arrays are washed extensively with excess of H2O and sonicated in disrupt-buffer containing 1% SDS / 0.1 % 2,2′-(ethylenedioxy)diethanethiol in PBS (pH 7.2) at 70° C. for 30 minutes, followed by sonication in H2O for another 45 minutes.
# The binding of the sample (recombinant His-tagged CD38; 9 µg/mL and 20 µg/mL) to each of the synthesized peptides was tested in a pepscan-based ELISA. The peptide arrays were incubated with primary sample solution (overnight at 4° C.). […]
substance,measurement,setting,value
NFVALEFP [SEQ ID NO: 296],glucose uptake (2-NBDG fluorescence),human Daudi cells,"slightly decreased the activity of the peptide, although it remained overall active"
"FELIVFN (Scramble peptide) [SEQ ID NO: 285, scramble peptide containing the same amino acid residues as NFVILEF in a different order]",glucose uptake (2-NBDG fluorescence),human Daudi cells,not able to increase glucose uptake
NFAILEFP [SEQ ID NO: 295],effect of the C-terminal deletion or alanine substitution (relative to the parent peptide) on glucose uptake,"human Daudi cells; parent SEQ ID NO: 6 (deletions) or SEQ ID NO: 8 (alanine scanning), 2-NBDG fluorescence",had no effect on glucose uptake
NDVILEFP [SEQ ID NO: 310],glucose uptake (2-NBDG fluorescence),human Daudi cells,impact the glucose uptake-increasing activity of the peptide
NSVILEFP [SEQ ID NO: 308],glucose uptake (2-NBDG fluorescence),human Daudi cells,keep glucose uptake-increasing activity
QFVILEFP [SEQ ID NO: 301],glucose uptake (2-NBDG fluorescence),human Daudi cells,still increase glucose uptake
NHVILEFP [SEQ ID NO: 309],glucose uptake (2-NBDG fluorescence),human Daudi cells,impact the glucose uptake-increasing activity of the peptide
NFVTLEFP [SEQ ID NO: 312],glucose uptake (2-NBDG fluorescence),human Daudi cells,still active
SFVILEFP [SEQ ID NO: 302],glucose uptake (2-NBDG fluorescence),human Daudi cells,"still increase glucose uptake, although to a lesser extent"
HFVILEFP [SEQ ID NO: 304],glucose uptake (2-NBDG fluorescence),human Daudi cells,impact the glucose uptake-increasing activity of the peptide
NFVHLEFP [SEQ ID NO: 314],glucose uptake (2-NBDG fluorescence),human Daudi cells,impact the glucose uptake-increasing activity of the peptide
NFVIAEFP [SEQ ID NO: 297],glucose uptake (2-NBDG fluorescence),human Daudi cells,"slightly decreased the activity of the peptide, although it remained overall active"
NFVIHEFP [SEQ ID NO: 318],glucose uptake (2-NBDG fluorescence),human Daudi cells,impact the glucose uptake-increasing activity of the peptide
NFVITEFP [SEQ ID NO: 316],glucose uptake (2-NBDG fluorescence),human Daudi cells,impact the glucose uptake-increasing activity of the peptide
FVILEFP [SEQ ID NO: 292],glucose uptake (2-NBDG fluorescence),human Daudi cells,failed to reproduce the effect of sCD31
NSMLIEFT [SEQ ID NO: 320],glucose uptake (2-NBDG fluorescence),human Daudi cells,still able to increase glucose uptake
NFVQLEFP [SEQ ID NO: 313],glucose uptake (2-NBDG fluorescence),human Daudi cells,still active
TFVILEFP [SEQ ID NO: 303],glucose uptake (2-NBDG fluorescence),human Daudi cells,"still increase glucose uptake, although to a lesser extent"
NYVILEFP [SEQ ID NO: 305],glucose uptake (2-NBDG fluorescence),human Daudi cells,still increase glucose uptake
218 (CESGEDIVC) [compound 218],"Value (binding intensity of His-tagged CD38), LOOP7 conformational peptide array",[1],420 mAU
278 (CESSRISKVSPGVVNITELFSC) [compound 278],"Value (binding intensity of His-tagged CD38), BET conformational peptide array",[1],637 mAU
221 (CDIVLQSAC) [compound 221],"Value (binding intensity of His-tagged CD38), LOOP7 conformational peptide array",[1],389 mAU
16 (CSEVLRVKVIPGVDEVQISILC; Human CD31 peptide) [compound 16],"Value (binding intensity of His-tagged CD38), BET conformational peptide array",[1],649 mAU
168 (KQKASKEQEGEYYCT) [compound 168],"Value (binding intensity of His-tagged CD38), LIN15 linear peptide array",[1],337 mAU
230 (CQHQMLFYKDDVLFYNC) [compound 230],"Value (binding intensity of His-tagged CD38), LOOP15 conformational peptide array",[1],600 mAU
241 (CMKSTESYFIPEVRIYC) [compound 241],"Value (binding intensity of His-tagged CD38), LOOP15 conformational peptide array",[1],325 mAU
227 (CHVKPQHQMLFYKDDVC) [compound 227],"Value (binding intensity of His-tagged CD38), LOOP15 conformational peptide array",[1],431 mAU
170 (ASKEQEGEYYCTAFN) [compound 170],"Value (binding intensity of His-tagged CD38), LIN15 linear peptide array",[1],400 mAU
205 (CIVVNITEC) [compound 205],"Value (binding intensity of His-tagged CD38), LOOP7 conformational peptide array",[1],630 mAU
190 (CVRIYDSGC) [compound 190],"Value (binding intensity of His-tagged CD38), LOOP7 conformational peptide array",[1],479 mAU
186 (CSYFIPEVC) [compound 186],"Value (binding intensity of His-tagged CD38), LOOP7 conformational peptide array",[1],400 mAU
180 (CYKDDVLFC) [compound 180],"Value (binding intensity of His-tagged CD38), LOOP7 conformational peptide array",[1],585 mAU
231 (CHQMLFYKDDVLFYNIC) [compound 231],"Value (binding intensity of His-tagged CD38), LOOP15 conformational peptide array",[1],564 mAU
246 (CYFIPEVRIYDSGTYKC) [compound 246],"Value (binding intensity of His-tagged CD38), LOOP15 conformational peptide array",[1],416 mAU
120 (NSNDPAVFKDNPTED) [compound 120],"Value (binding intensity of His-tagged CD38), LIN15 linear peptide array",[1],421 mAU
187 (CYFIPEVRC) [compound 187],"Value (binding intensity of His-tagged CD38), LOOP7 conformational peptide array",[1],523 mAU
167 (CEDVEYQSC) [compound 167],"Value (binding intensity of His-tagged CD38), LOOP7 conformational peptide array",[1],804 mAU
261 (CRISKVSSIVVNITELC) [compound 261],"Value (binding intensity of His-tagged CD38), LOOP15 conformational peptide array",[1],567 mAU
182 (CDDVLFYNC) [compound 182],"Value (binding intensity of His-tagged CD38), LOOP7 conformational peptide array",[1],702 mAU
196 (CQNFVILEC) [compound 196],"Value (binding intensity of His-tagged CD38), LOOP7 conformational peptide array",[1],942 mAU
219 (CSGEDIVLC) [compound 219],"Value (binding intensity of His-tagged CD38), LOOP7 conformational peptide array",[1],573 mAU
260 (CSSRISKVSSIVVNITC) [compound 260],"Value (binding intensity of His-tagged CD38), LOOP15 conformational peptide array",[1],287 mAU
184 (CKSTESYFC) [compound 184],"Value (binding intensity of His-tagged CD38), LOOP7 conformational peptide array",[1],339 mAU
192 (CTAEYQVLC) [compound 192],"Value (binding intensity of His-tagged CD38), LOOP7 conformational peptide array",[1],492 mAU
282 (CVVSEMLSQPPGSYDAQFEVIC) [compound 282],"Value (binding intensity of His-tagged CD38), BET conformational peptide array",[1],635 mAU
100 (SSRISKVSSIVVNIT) [compound 100],"Value (binding intensity of His-tagged CD38), LIN15 linear peptide array",[1],168 mAU
229 (CKPQHQMLFYKDDVLFC) [compound 229],"Value (binding intensity of His-tagged CD38), LOOP15 conformational peptide array",[1],467 mAU
199 (CLAQEFPEC) [compound 199],"Value (binding intensity of His-tagged CD38), LOOP7 conformational peptide array",[1],412 mAU
121 (SNDPAVFKDNPTEDV) [compound 121],"Value (binding intensity of His-tagged CD38), LIN15 linear peptide array",[1],410 mAU

# — patent US20230357354A1, “CD38-BINDING CD31 PEPTIDES AND USES THEREOF” (ENCEFA, priority 2020, published 2023)
